T1: Recombinant purified FcRH5 Ig-8 domain (UniProt Q96RD9 743-850, limits assumed)
T1 construct: domain: Ig8
T1 sequence (looked up): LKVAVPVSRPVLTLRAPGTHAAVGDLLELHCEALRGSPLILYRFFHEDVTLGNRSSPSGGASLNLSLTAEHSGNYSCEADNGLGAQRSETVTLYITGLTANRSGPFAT

T2: Plate bound FcRH5 antigen (UniProt Q96RD9)
T2 sequence (looked up): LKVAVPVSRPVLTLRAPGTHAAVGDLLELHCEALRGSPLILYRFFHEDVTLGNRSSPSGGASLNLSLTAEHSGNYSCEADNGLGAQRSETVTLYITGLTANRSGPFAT


These binders were tested against T1, Recombinant purified FcRH5 Ig-8 domain (assay: SPR, Biacore 8k, VHH-mIgG2a Fc captured by anti-mouse kit on CM5, FcRH5 Ig8 as analyte (500 nM, 2-fold dilutions), 1:1 Langmuir fit, 25 C).
Method: (§1) Recombinant anti-FcRH5 antibodies in mouse IgG2a format were captured on flow cell 2 on a Series S CM5 chip (GE Healthcare), functionalised with anti-mouse capture kit according to manufacturer's recommendations (GE Healthcare). Antibodies were captured to a density of 160 RU using a Biacore 8k instrument. HBS-P+ buffer was used as running buffer in all experimental conditions. Recombinant purified FcRH5 Ig-8 domain at known concentrations (500 nM with 2-fold serial dilutions) used as the ‘analyte’ and injected over the respective flow cells with 150s contact time and 500s dissociation at 30 μl/minute of flow rate with a constant temperature of 25° C. In each experiment, flow cell 1 was unmodified and used for reference subtraction. A ‘0 concentration’ sensogram of buffer alone was used as a double reference subtraction to factor for drift. Data were fit to a 1:1 Langmuir binding model. Since a capture system was used, a local maximal analytical response (Rmax) parameter was used for the data fitting in each case.

Row | kon [M⁻¹ s⁻¹] | Binder
1 | 48600 | Anti-FcRH5 VHH-Fc AU60387 (AbVec.aFcRH5.dAb-MIgG2a-Fc.Clone.C01) (Fc fusion, VHH fused to murine IgG2a Fc; not shown: murine IgG2a Fc domain) QVQLQESGGGLVQAGGSLRLSCAASGRTFSTYGMGWFRQAPGKEREFVAAISRSGGATAYAASVKGRFTISRDDVKNTLYLQMNSLKPEDTAVYHCAGTRRAFSTGLRDYDYWGQGIQVTVS
2 | 50000 | Anti-FcRH5 VHH-Fc AU60390 (AbVec.aFcRH5.dAb-MIgG2a-Fc.Clone.C06) (Fc fusion, not shown: murine IgG2a Fc domain) QVQLQQSGGGLVQAGDSLRLSCAASGRTFSNSTMGWFRQAPGKERKFVAVISWSGGTYAYAESVKGRFTISRDNAKNTVYLQMNSLKPEDTAVYYCAAARKGWSTRGDDYDYWGQGTQVTVS

These binders were tested against T1, Recombinant purified FcRH5 Ig-8 domain (assay: SPR, Biacore 8k, VHH-mIgG2a Fc captured, FcRH5 Ig8 as analyte, 1:1 Langmuir fit, 25 C; footnote: kd outside instrument limits).
Method: as §1

Row | Kd [pM] | koff [s⁻¹] | Binder
3 | < 206 | < 1e-05 | Anti-FcRH5 VHH-Fc AU60387 (AbVec.aFcRH5.dAb-MIgG2a-Fc.Clone.C01) (Fc fusion, VHH fused to murine IgG2a Fc; not shown: murine IgG2a Fc domain) QVQLQESGGGLVQAGGSLRLSCAASGRTFSTYGMGWFRQAPGKEREFVAAISRSGGATAYAASVKGRFTISRDDVKNTLYLQMNSLKPEDTAVYHCAGTRRAFSTGLRDYDYWGQGIQVTVS
4 | < 200 | < 1e-05 | Anti-FcRH5 VHH-Fc AU60390 (AbVec.aFcRH5.dAb-MIgG2a-Fc.Clone.C06) (Fc fusion, not shown: murine IgG2a Fc domain) QVQLQQSGGGLVQAGDSLRLSCAASGRTFSNSTMGWFRQAPGKERKFVAVISWSGGTYAYAESVKGRFTISRDNAKNTVYLQMNSLKPEDTAVYYCAAARKGWSTRGDDYDYWGQGTQVTVS

These binders were tested against T2, Plate bound FcRH5 antigen (assay: cell-based or functional assay).

Row | EC50 (µg/ml) of percentage Nur77 activation by plate bound FcRH5 antigen (µg/ml FcRH5 coating) | Nur77-mClover positive cells after 24 h 10 µg/ml (% upregulation) [%] | Binder
5 | 1.62 | 40.7 | Anti-FcRH5 VHH-CAR 66840 (VHH of AU60471), on Jurkat T cells (protein, not shown: large carriers) QVQLQESGGGLVQAGGSLRLSCAASGSIFSINAMGWYRQAPGKQRELVAFITSGGSTNYADSVKGRFTISRDNAKNTVYLQMNSLKPEDTAVYYCNALGGFVPSYGWGQGTQVTVS
6 | – | 0.898 | Anti-FcRH5 VHH-CAR 66836 (VHH of AU60467), on Jurkat T cells (protein, not shown: large carriers) QVQLQESGGGLVQAGDSLRLSCAASGRTFDSRPMGWFRQAPGKEREFVGAVSWRGESTYYPDSVKGRFTISRDNAKRTVYLQMNSLKPEDTAVYYCAAGEPYSGTYYYRGRDYDYWGQGTQVTVS
7 | 1.97 | 29.7 | Anti-FcRH5 VHH-CAR 66843 (VHH of AU60382), on Jurkat T cells (protein, not shown: large carriers) QVQLQESGGGLVQAGGSLIVSCAASGRTFSINAMAWFRQAPGKEREFVAAIGGSGRVSSTSYADFVKGRFTISRDNAKNTVYLRMNNLEPEDTAVYYCAARRDYLPFPPESYDYWGQGTQVTVA
8 | 0.977 | 45.5 | Anti-FcRH5 VHH-CAR 66835 (VHH of AU60466), on Jurkat T cells (protein, not shown: large carriers) QVQLQQSGGGLVQAGGSLSLSCTASGRSFSNYGMGWFRQAPGKEREFVAAIGMVGGLTAYSNSAKGRFTISRDNAKNTLYLQMNSLKPEDTAVYLCAAGRRFSTSSRDYDIWGQGTQVTVS
9 | 1.46 | 36.8 | Anti-FcRH5 VHH-CAR 66842 (VHH of AU60370), on Jurkat T cells (protein, not shown: large carriers) QVQLQESGGGSVQPGGSLSLSCAASGFTFSNYAMSWVRQAPGKGPEWVAVINSDGGTASSAGSVRGRFTISRDNAKNTLYLQMNRLKPEDTAVYYCAANRGFCAGVRCLEYQYWGQGTQVTVS

Continued, binder first:

Row | Binder | EC50 (µg/ml) of percentage Nur77 activation by plate bound FcRH5 antigen (µg/ml FcRH5 coating) | Nur77-mClover positive cells after 24 h 10 µg/ml (% upregulation) [%]
10 | Anti-FcRH5 VHH-CAR 66829 (VHH of AU60460), on Jurkat T cells (protein, not shown: large carriers) QVQLQESGGGLVQAGGSLRLSCAASGRTYNNYAMGWFRQAPGKEREFVAGISRSGGMTGYAESVKGRFTISRDNAKNMVFLQMNSLKPEDTAVYYCAAYVGGFSTARRDYSYWGQGTQVTVS | 1.43 | 44.5
11 | Anti-FcRH5 VHH-CAR 66833 (VHH of AU60464), on Jurkat T cells (protein, not shown: large carriers) QVQLQQSGGGLVQPGGSLRLSCAAPGNIFRLNGTGWYRQAPGKQRELVAHITSGGNTDYADSVKGRFTISRDNAKNTVYLQMNSLKPEDTAVYYCNAIPFRLSWGQGTQVTVS | 1.31 | 26.6
12 | Anti-FcRH5 VHH-CAR 66832 (VHH of AU60463), on Jurkat T cells (protein, not shown: large carriers) QVQLQESGGGLVQAGDSLRLSCAYSGRTFSSYAMGWFRQAPGKERVFVAAISRIGGVTTYAESVQGRFTISRDNAKNTLYLQMNALKPEDTAVYYCAAAGLVSISTTPNDYDYWGQGTQVTVS | 2 | 38.4
13 | Anti-FcRH5 VHH-CAR 66831 (VHH of AU60462), on Jurkat T cells (protein, not shown: large carriers) QVQLQESGGGLVQAGGSLRLSCTASGRTSSRAAMGWFRQAPGKEREFVAVISWSGGTTAYANSVKGRFTISRDNAKNTLYLQMNSLKPEDTAVYYCAAARIFTTARNDYDHWGQGTQVTVS | – | 2.59
14 | Anti-FcRH5 VHH-CAR 66825 (VHH of AU60387), on Jurkat T cells (protein, not shown: large carriers) QVQLQESGGGLVQAGGSLRLSCAASGRTFSTYGMGWFRQAPGKEREFVAAISRSGGATAYAASVKGRFTISRDDVKNTLYLQMNSLKPEDTAVYHCAGTRRAFSTGLRDYDYWGQGIQVTVS | 2.42 | 39
15 | Anti-FcRH5 VHH-CAR 66828 (VHH of AU60390), on Jurkat T cells (protein, not shown: large carriers) QVQLQQSGGGLVQAGDSLRLSCAASGRTFSNSTMGWFRQAPGKERKFVAVISWSGGTYAYAESVKGRFTISRDNAKNTVYLQMNSLKPEDTAVYYCAAARKGWSTRGDDYDYWGQGTQVTVS | 1.8 | 34.2
16 | Anti-FcRH5 VHH-CAR 66823 (VHH of AU60385), on Jurkat T cells (protein, not shown: large carriers) QVQLQESGGGLVQAGGSLRLSCAASGRTFSTYAMAWFRQAPGKEREFVAAISGFGVVTYYADSVKGRFTISRDNAKNTLYLQMNGLKPEDTAVYYCAAGRRTSTNGGDYDYWGQGTQVTVS | 1.54 | 26.5

— patent US20250289891A1 (AUTOLUS, published 2025)
